Measured values from paper PMC13043311, “2′-O-Methyl-guanosine RNA fragments antagonize TLR7 and TLR8 to limit autoimmunity”.

Assays:
TLR7 WT (mmTLR7) [1] = target: T1, TLR7 WT (mmTLR7) (Macaca mulatta, UniProt B3Y653 27-839); test: SPR; control of the nucleoside series; mean computed from runs 1±0.3, 3±0.9, 5±0.8; SPR with recombinant TLR7/TLR8; buffer, pH and temperature not in the material; conditions: protein: recombinant; chain copies: 2; single-stranded
T1 sequence: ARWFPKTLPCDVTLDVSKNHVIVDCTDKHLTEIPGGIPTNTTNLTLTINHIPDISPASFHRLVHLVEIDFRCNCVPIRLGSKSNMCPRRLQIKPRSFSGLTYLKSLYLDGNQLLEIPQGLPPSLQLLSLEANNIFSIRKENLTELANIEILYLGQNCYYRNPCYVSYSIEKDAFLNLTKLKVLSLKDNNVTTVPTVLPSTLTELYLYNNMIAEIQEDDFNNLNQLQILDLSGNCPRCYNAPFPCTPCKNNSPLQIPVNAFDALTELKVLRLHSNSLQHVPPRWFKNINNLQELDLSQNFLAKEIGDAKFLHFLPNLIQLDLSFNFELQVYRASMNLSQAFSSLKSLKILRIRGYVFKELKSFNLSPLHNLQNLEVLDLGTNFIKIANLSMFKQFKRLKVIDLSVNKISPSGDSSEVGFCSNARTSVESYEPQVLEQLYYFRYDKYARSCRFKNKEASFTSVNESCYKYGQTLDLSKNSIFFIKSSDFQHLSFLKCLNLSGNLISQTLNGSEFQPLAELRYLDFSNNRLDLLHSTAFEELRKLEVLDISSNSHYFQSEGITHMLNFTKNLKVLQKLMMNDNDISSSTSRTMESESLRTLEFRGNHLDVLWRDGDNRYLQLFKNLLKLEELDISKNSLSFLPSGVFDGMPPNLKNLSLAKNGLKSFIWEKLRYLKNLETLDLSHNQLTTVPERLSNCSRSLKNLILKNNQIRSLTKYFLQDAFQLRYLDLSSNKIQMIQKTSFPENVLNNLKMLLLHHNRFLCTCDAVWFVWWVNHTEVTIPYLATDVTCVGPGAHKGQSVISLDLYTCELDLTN

TLR7 WT (mmTLR7) [2] = target: T1, TLR7 WT (mmTLR7); test: SPR; mean computed from runs 0.9±0.3, 2±0.5, 1.4±0.6; SPR with recombinant TLR7/TLR8; buffer, pH and temperature not in the material; conditions: protein: recombinant; chain copies: 2; single-stranded

Q: Which results are given for GUC (XNA, 2'-OMe G1, RNA U2 C3; phosphorothioate linkages) [mGrUrC PS]?
A: Kd (TLR7 WT (mmTLR7) [1]): 3000 nM; Kd (TLR7 WT (mmTLR7) [2]): 1430 nM
